Molecular target: T1, QseB (Escherichia coli ECDCM2 (clinical bovine mastitis isolate)) (UniProt P52076)
T1 sequence: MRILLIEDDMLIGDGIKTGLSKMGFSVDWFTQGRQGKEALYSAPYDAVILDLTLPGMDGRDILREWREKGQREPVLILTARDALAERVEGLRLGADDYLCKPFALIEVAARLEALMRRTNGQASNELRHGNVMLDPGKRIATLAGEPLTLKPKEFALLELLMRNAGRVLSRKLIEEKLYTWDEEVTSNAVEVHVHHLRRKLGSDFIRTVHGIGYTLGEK
Assay: EMSA

Q: With “ATGTTCGTGAATTTACAGGCGTTAGATTTACATACATTTGTGAATGTATGTACCATAGCACGACGATAATATAAACGCAGCAATGGGTTTATTAACTTTTGACCATTGACCAATTTGAAATCGGACACTCGAGGTTTACAT (double strand) [p-acrA promoter]” as the sequence, how does the binding read?
A: no binding

From PMC7102498
